# According to patent US10677782B2, “Methods of determining interferon having direct inhibitory effects on tumors and uses thereof” (SUPERLAB FAR EAST LIMITED, priority 2013, dated 2020):
# B1: rSIFN-co: Recombinant super-compound interferon; amino acid sequence SEQ ID NO: 1 (same as interferon alfacon-1), encoded by SEQ ID NO: 2, novel tertiary structure (protein)
# chain: MCDLPQTHSLGNRRALILLAQMRRISPFSCLKDRHDFGFPQEEFDGNQFQKAQAISVLHEMIQQTFNLFSTKDSSAAWDESLLEKFYTELYQQLNDLEACVIQEVGVEETPLMNVDSILAVKKYFQRITLYLTEKKYSPCAWEVVRAEIMRSFSLSTNLQERLRRKE
# modifications: Amino acid sequence of recombinant interferon
# How the values were obtained:
# human hepatoma SMMC-7721 = assay: Human hepatoma SMMC-7721 xenografts in nude mice (Example 1); format: in vivo; settings: for TV (mm^3, mean ± SD) (D0): day 0, start of treatment
# Procedure: The test article was used without dilution. It was stored at 4° C. until thawed for injection.
# The animals used were 4-6 weeks old male BALB/cA nu/nu mice, weighing about 23±2 g, obtained from the Shanghai Institute of Materia Medica (Shanghai, P.R. China). The study protocol was reviewed by the Committee on the Use and Care of Animals of Shanghai Institute of Materia Medica for compliance with regulations, and Committee approval was obtained prior to study initiation. Wherever possible, procedures used in this study were designed to avoid or minimize discomfort, distress, and pain to the animals. Animals that experience severe or chronic pain or distress that could not be relieved were painlessly euthanized, in accordance to regulations. Animals were housed 6 to a cage. They were ear-marked with ear hole punch identification. The room temperature was maintained at 25° C.±1° C. Lighting was set at 12 hr on and 12 hr off. Food was provided ad libitum. City tap water, filtered with a 5 micrometer (μm) filter, was provided to the animals ad libitum via water bottles. Neither the Study Director nor Huiyang Life Science and Technology Corp. was aware of any contaminant in the food or water that would interfere with or influence the intent and purpose of this study.
# The test article (rSIFN-co) and the vehicle control were each administered intratumorally (i.t.). The test article was administered in a volume of 0.05 ml-0.15 ml per mouse per treatment, depending on the group to which the animal was assigned. […] Normal saline was injected in a volume of 0.15 ml per mouse, which was used as vehicle control.
# Animals were assigned to treatment groups randomly. Initially, all animals were placed in one large animal cage. For assignment to the study, they were later separately housed, with 6 animals per cage per treatment group. Groups 1 and 2 are Control groups in which the animals were each administered the vehicle every other day after the first treatment. […] The animals in Groups 4, 5 and 6 were each given rSIFN-co every other day after the first treatment at 0.15 mg/mouse (Group 4) or 0.10 mg/mouse (Group 5) or 0.05 mg/mouse (Group 6), respectively. Tumor growth was monitored by measuring the length and width of each tumor twice a week during the course of the study. Each animal was also weighed twice a week during the course of the study.
# (§1) Before commencement of this study, the xenografts were passaged twice in nude mice. Under sterile conditions, well-grown tumors were cut into 1.5 mm^3 fragments and one such fragment was injected by trocar needle into the right flank of each study animal. […] Individual tumor size (length and width) was measured twice per week with microcalipers. Tumor volume (V) was calculated using the formula: V=(length×width^2)/2. Individual relative tumor volume (RTV) was calculated using the formula: RTV=Vt/V0, where Vt is the tumor volume on the day of measurement and V0 is the tumor volume on the day of first treatment. Therapeutic effect of the test article or control article was expressed in terms of TIC (%), using the formula: TIC (%) (mean RTV of the treated group/mean RTV of the control group)×100%; and in terms of % Inhibition, using the formula: % Inhibition=100%−T/C %.
# [1] = system: Human Cervical Cancer Hela Xenografts; assay: Human cervical cancer Hela xenografts in nude mice (Example 2); format: in vivo; settings: for TV (mm^3, mean ± SD) (D0): day 0, start of treatment; for TV (mm^3, mean ± SD) (D28): day 28
# Procedure: as §1
# Then 1.5 mm^3 fragments were prepared for s.c. implantation into the animals.
# A549 tumor cells = assay: Cell viability over 1-6 days, MTT assay; format: cell-based, human; settings: 10 μg/ml
# Procedure: The cell survival rate was evaluated in a standard MTT assay (3-(4,5-dimethylthiazol-2-yl)-2,5-diphenyltetrazolium bromide assay, Sigma, St. Louis, Mo.). For the assay, about 20 μl MTT (at […]) was added to each well. The cells were incubated at 37° C. for 4 hr. After that, the supernatant of each well was drawn off carefully and then an equal volume (150 microliter) of dimethyl sulfoxide (DMSO) was added to each well and mixed thoroughly on a shaker for 15 min. The absorbance from the plates was read at 595 nm with a Thermo Scientific Microplate Reader (Thermo Fisher Scientific Inc., Lowell, Mass.). The relative cell viability was calculated as follows: Cell viability=(Treated group(OD595) minus blank(OD595))/(Control group(OD595) minus blank(OD595))×100%.
# [2] = system: Human Colon Cancer HT-29 Xenografts; assay: Human colon cancer HT-29 xenografts in nude mice (Example 3); format: in vivo; settings: for TV (mm^3, mean ± SD) (D0): day 0, start of treatment; for TV (mm^3, mean ± SD) (D28): day 28
# Procedure: as §1
# Then, 1.5 mm^3 fragments were prepared for s.c. implantation into the test animals.
# [3] = system: human lung cancer SPC-A4 xenografts; assay: Human lung cancer SPC-A4 xenografts in nude mice (Example 4); format: in vivo; settings: for TV (mm^3, mean ± SD) (D0): day 0, start of treatment; for TV (mm^3, mean ± SD) (D21): day 21
# Procedure: as §1
# The 1.5 mm^3 fragments were then used for s.c. implantation into the test animals.
# [4] = 0.05 mg/mouse i.t. every other day
# [5] = 0.05 mg/mouse i.t. every other day, day 21
# [6] = 0.10 mg/mouse i.t. every other day
# [7] = 0.15 mg/mouse i.t. every other day
molecule,measurement,setting,value
B1,"TV (mm^3, mean ± SD) (D0)",human hepatoma SMMC-7721; [4],124 ± 26 mm^3
same,% Inhibition,human hepatoma SMMC-7721; [5],48.10%
same,"TV (mm^3, mean ± SD) (D21)",human hepatoma SMMC-7721; [5],592 ± 139 mm^3
same,"TV (mm^3, mean ± SD) (D0)",human hepatoma SMMC-7721; [6],124 ± 15 mm^3
same,"TV (mm^3, mean ± SD) (D21)","human hepatoma SMMC-7721; 0.10 mg/mouse i.t. every other day, day 21",573 ± 287 mm^3
same,"TV (mm^3, mean ± SD) (D0)",human hepatoma SMMC-7721; [7],123 ± 20 mm^3
same,"TV (mm^3, mean ± SD) (D21)","human hepatoma SMMC-7721; 0.15 mg/mouse i.t. every other day, day 21",505 ± 226 mm^3
same,"TV (mm^3, mean ± SD) (D0)",[1]; [4],135 ± 26 mm^3
same,"TV (mm^3, mean ± SD) (D28)",[1]; [4],886 ± 232 mm^3
same,"TV (mm^3, mean ± SD) (D0)",[1]; [6],135 ± 28 mm^3
same,"TV (mm^3, mean ± SD) (D28)",[1]; [6],865 ± 186 mm^3
same,"TV (mm^3, mean ± SD) (D0)",[1]; [7],136 ± 25 mm^3
same,"TV (mm^3, mean ± SD) (D28)",[1]; [7],1025 ± 400 mm^3
same,"cell viability, time dependent effect",A549 tumor cells,apparent for A549 cells for only about the first 3 days of treatment
same,"TV (mm^3, mean ± SD) (D0)",[2]; [4],130 ± 26 mm^3
same,"TV (mm^3, mean ± SD) (D28)",[2]; [4],416 ± 166 mm^3
same,"TV (mm^3, mean ± SD) (D0)",[2]; [6],128 ± 39 mm^3
same,"TV (mm^3, mean ± SD) (D28)",[2]; [6],541 ± 196 mm^3
same,"TV (mm^3, mean ± SD) (D0)",[2]; [7],131 ± 36 mm^3
same,"TV (mm^3, mean ± SD) (D28)",[2]; [7],570 ± 144 mm^3
same,"TV (mm^3, mean ± SD) (D0)",[3]; [4],170 ± 41 mm^3
same,"TV (mm^3, mean ± SD) (D21)",[3]; [4],2244 ± 1043 mm^3
same,"TV (mm^3, mean ± SD) (D0)",[3]; [6],168 ± 49 mm^3
same,"TV (mm^3, mean ± SD) (D21)",[3]; [6],2388 ± 1544 mm^3
same,"TV (mm^3, mean ± SD) (D0)",[3]; [7],169 ± 40 mm^3
same,"TV (mm^3, mean ± SD) (D21)",[3]; [7],2284 ± 653 mm^3
